Data as given in US5767078A, “Agonist peptide dimers” (priority 1995, dated 1998).
Bridge positions count the residues as written; N and C are the ends. Ends that are not written are not given here.

How the values were obtained:
murine EPO receptor = biological target: T1, murine EPO receptor (Mus musculus, UniProt P14753); assay: EPO dependent cell proliferation assay, FDC-P1/ER cells; type: cell-based
T1 construct: expressed in transfected cells; host or cells: FDC-P1/ER cells
T1 sequence (P14753 25-507): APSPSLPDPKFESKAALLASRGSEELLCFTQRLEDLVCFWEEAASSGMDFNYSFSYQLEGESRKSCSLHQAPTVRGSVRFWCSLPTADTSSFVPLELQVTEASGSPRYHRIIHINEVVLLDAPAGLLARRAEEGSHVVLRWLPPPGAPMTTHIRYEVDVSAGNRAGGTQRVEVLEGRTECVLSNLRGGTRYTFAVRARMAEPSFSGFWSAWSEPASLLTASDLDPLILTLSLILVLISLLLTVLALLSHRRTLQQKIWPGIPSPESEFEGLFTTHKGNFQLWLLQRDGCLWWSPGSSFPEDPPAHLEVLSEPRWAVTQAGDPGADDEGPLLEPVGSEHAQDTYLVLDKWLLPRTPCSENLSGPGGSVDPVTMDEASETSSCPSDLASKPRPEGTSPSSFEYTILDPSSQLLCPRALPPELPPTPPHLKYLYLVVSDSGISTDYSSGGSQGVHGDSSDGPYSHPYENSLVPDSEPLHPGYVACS
Description: After 24 hours, the cells were counted, resuspended at 800,000 cells/ml and dispensed at 40,000 cells/well. Stock solutions of the peptide dimer (5 mM in PBS) and peptide (10 mM in DMSO) were prepared and dispensed in triplicate to final concentrations of 1×10^-10 M through 1×10^-5 M and adjusted to a final volume of 0.2 ml. […] After a 42 hr incubation at 37° C. (ca. 2 cell doublings) 1 μCi/well of [^3 H] thymidine was added and the incubation continued for 6 hr at which time the cells were harvested and counted to assess [^3 H]thymidine incorporation as a measure of cell proliferation.

BDF1 mice = assay: Polycythemic exhypoxic mouse bioassay ([59Fe] incorporation into nascent red blood cells); type: in vivo; settings: on a mole equivalent basis
Description: Peptides were assayed for in vivo activity in the polycythemic mouse bioassay adapted from the method described by Cotes and Bangham (1961), Nature 191: 1065-1067. BDF1 mice were allowed to acclimate to ambient conditions for 7-10 days. Body weights were determined for all animals. Low weight animals (<15 grams) were not used. Mice were introduced to hypobaric chambers with a 24 hour conditioning cycle consisting of 0.40% +/-0.02 atm. for 18 hours followed by 6 hours at ambient pressure for a total of 14 days. Following the 14 day period, mice were placed in ambient pressure for 72 hours prior to dosing. […] Peptide sample stock solutions (excluding peptide dimers) were first solubilized in dimethyl sulfoxide (DMSO). Control groups included one group of vehicle alone, and one group of (DMSO) at final concentration of 1%.
Each dose group contained 10 mice. Mice were injected subcutaneously (scruff of neck) with 0.5 ml of the appropriate sample. […]
Mouse body weights were determined twenty four hours following [^59 Fe] administration and the mice were sacrificed forty eight hours following the [^59 Fe] injection. Blood was collected from each animal by cardiac puncture and hematocrits were determined (heparin was used as the anticoagulant). Each blood sample (0.2 ml) was analyzed for [^59 Fe] incorporation using a Packard gamma counter. […]

**Q.** For “peptide (SEQ ID NO: 8)/PEG-dimer: PEG dimer of peptide SEQ ID NO: 8, lot not stated for the in vivo bioassay (GGTYSCHFGPLTWVCKPQGG-NH2; disulfide 6-15 (inferred); also: PEG covalent dimer)”, which “increase in potency versus parent peptide, murine receptor line” value (murine EPO receptor) is on record?
**A.** Its value is 10 fold.

**Q.** And the “in vivo activity of dimer relative to monomer” value (BDF1 mice)?
**A.** The value was “about 10 fold”.
